The supplement of paper PMC7877785
± gives the uncertainty stated by the source.

Assay: self-splicing fitness, log relative to wild type (ln ratio); higher = more splicing; Tetrahymena group I intron in knt gene, E. coli kanamycin selection, DiMSum; sequences stand for … in CUCUCU…GGAGGGAAAAGUUAUCAGGCAUGCACCUGGUAGCUAGUCUUUAAACCAAUAGAUUGCAUCGGUUUAAAAGGCAAGACCGUCAAAUUGCGGGAAAGGGGUCAACAGCCGUUCAGUACCAAGUCUCAGGGGAAACUUUGAGAUGGCCUUGCAAAGGGUAUGGUAAUAAGCUGACGGACAUGGUCCUAACCACGCAGCCAAGUCCUAAGUCAACAGAUCUUCUGUUGAUAUGGAUGCAGUUCACAGACUAAAUGUCGGUCGGGGAAGAUGUAUUCUUCUCAUAAGAUAUAGUCGGACCUCUCCUUAAUGGGAGCUAGCGGAUGAAGUGAUGCAACACUGGAGCCGCUGGGAACUAAUUUGUAUGCGAAAGUAUAUUGAUUAGUUUUGGAGUACUCGUGGUCG
In short: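 Pooled colonies went to amplicon sequencing on an Illumina HiSeq 2500 after six replicate transformations. The plates were LB agar with 100 μg/mL carbenicillin, 50 μM IPTG and 0.2% rhamnose, with or without 25 μg/mL kanamycin, incubated overnight at 37°C or 30°C. The E. coli BL21(DE3) library had all eight P1ex-region intron nucleotides randomised, the intron placed in the knt kanamycin-resistance gene on pET-22b(+). DiMSum fitness is the error-weighted combination of replicate fold changes, kanamycin against none, normalised to wild type.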

| Sequence | self-splicing fitness (ln) (30 °C) | self-splicing fitness (ln) (37 °C) |
| --- | --- | --- |
| AAUAAGCAAUAUUACGCAGU | -3.08 ± 0.22 | -2.04 ± 0.19 |
| AAUAAGCAAUAUUACGCUGA | -1.81 ± 0.17 | -1.63 ± 0.18 |
| AAUAAGCAAUAUUACGGAAC | -4.53 ± 0.34 | -2.16 ± 0.23 |
| AAUAAGCAAUAUUACGGACA | -0.911 ± 0.13 | 0.0108 ± 0.14 |
| AAUAAGCAAUAUUACGGCGA | -0.134 ± 0.079 | -0.274 ± 0.1 |
| AAUAAGCAAUAUUACGGGAU | -2.73 ± 0.15 | -1.33 ± 0.14 |
| AAUAAGCAAUAUUACGGGCC | -2.8 ± 0.39 | -2.21 ± 0.31 |
| AAUAAGCAAUAUUACGGGGA | -3.01 ± 0.21 | -1.42 ± 0.16 |
| AAUAAGCAAUAUUACGGGUU | -2.37 ± 0.13 | -1.43 ± 0.16 |
| AAUAAGCAAUAUUACGGUCC | -1.47 ± 0.14 | -0.63 ± 0.22 |
| AAUAAGCAAUAUUACGUAAG | -2.06 ± 0.072 | -0.567 ± 0.084 |
| AAUAAGCAAUAUUACGUAGG | -2.11 ± 0.16 | -0.935 ± 0.17 |
| AAUAAGCAAUAUUACGUCAA | -2.29 ± 0.14 | -2.06 ± 0.12 |
| AAUAAGCAAUAUUACGUCGG | -1.91 ± 0.14 | -1.75 ± 0.18 |
| AAUAAGCAAUAUUACGUUCU | -0.338 ± 0.077 | 0.0226 ± 0.11 |
| AAUAAGCAAUAUUACGUUGA | -2.96 ± 0.22 | -2.62 ± 0.2 |
| AAUCAGCAAUAUUACGAAUG | -0.581 ± 0.069 | -0.488 ± 0.12 |
| AAUCAGCAAUAUUACGACCU | 0.207 ± 0.09 | 0.538 ± 0.096 |
| AAUCAGCAAUAUUACGAGGU | -2.3 ± 0.12 | -1.36 ± 0.15 |
| AAUCAGCAAUAUUACGCGCA | -0.8 ± 0.081 | -0.264 ± 0.12 |
| AAUCAGCAAUAUUACGCGUC | -1.14 ± 0.071 | 0.513 ± 0.088 |
| AAUCAGCAAUAUUACGCUAA | -0.408 ± 0.089 | 0.12 ± 0.092 |
| AAUCAGCAAUAUUACGCUUA | -0.484 ± 0.072 | 0.347 ± 0.098 |
| AAUCAGCAAUAUUACGGCGA | -0.0143 ± 0.073 | 0.557 ± 0.093 |

| Sequence | self-splicing fitness (ln) (30 °C) | self-splicing fitness (ln) (37 °C) |
| --- | --- | --- |
| AAUCAGCAAUAUUACGGGCA | -0.515 ± 0.091 | -0.146 ± 0.12 |
| AAUCAGCAAUAUUACGGUGA | -0.138 ± 0.076 | 0.345 ± 0.087 |
| AAUCAGCAAUAUUACGGUUU | -1.35 ± 0.056 | -0.0658 ± 0.064 |
| AAUCAGCAAUAUUACGUCAA | -0.952 ± 0.077 | -0.614 ± 0.1 |
| AAUCAGCAAUAUUACGUCUU | 0.123 ± 0.06 | 0.106 ± 0.079 |
| AAUCAGCAAUAUUACGUGAC | -1.81 ± 0.085 | -1.72 ± 0.12 |
| AAUCAGCAAUAUUACGUGCG | -0.392 ± 0.058 | -0.216 ± 0.08 |
| AAUCAGCAAUAUUACGUGUG | -0.753 ± 0.053 | -0.737 ± 0.067 |
| AAUCAGCAAUAUUACGUUAC | -2.78 ± 0.13 | -1.08 ± 0.1 |
| AAUCAGCAAUAUUACGUUCA | -1.2 ± 0.091 | -0.527 ± 0.11 |
| AAUCAGCAAUAUUACGUUGU | -2.38 ± 0.1 | -1.68 ± 0.12 |
| AAUGAGCAAUAUUACGAACU | -1.11 ± 0.14 | -0.57 ± 0.16 |
| AAUGAGCAAUAUUACGAAUG | -3.34 ± 0.36 | – |
| AAUGAGCAAUAUUACGACCA | -2.14 ± 0.24 | -2.22 ± 0.37 |
| AAUGAGCAAUAUUACGAGCA | -3.45 ± 0.32 | -2.35 ± 0.29 |
| AAUGAGCAAUAUUACGCACU | -1.07 ± 0.11 | 0.105 ± 0.15 |
| AAUGAGCAAUAUUACGCGCC | -3.19 ± 0.28 | -2.73 ± 0.44 |
| AAUGAGCAAUAUUACGCGGA | -2.88 ± 0.21 | -2.13 ± 0.21 |
| AAUGAGCAAUAUUACGCGGU | -2.93 ± 0.17 | -3.12 ± 0.32 |
| AAUGAGCAAUAUUACGCUUU | -3.41 ± 0.23 | -2.34 ± 0.31 |
| AAUGAGCAAUAUUACGGAUU | -2.38 ± 0.15 | -1.04 ± 0.16 |
| AAUGAGCAAUAUUACGGCCG | -2.12 ± 0.15 | -1.36 ± 0.2 |
| AAUGAGCAAUAUUACGGCGA | -2.77 ± 0.34 | -0.446 ± 0.19 |
| AAUGAGCAAUAUUACGGGGC | -2.82 ± 0.2 | -1.93 ± 0.24 |

| Sequence | self-splicing fitness (ln) (30 °C) | self-splicing fitness (ln) (37 °C) |
| --- | --- | --- |
| AAUGAGCAAUAUUACGGGUG | -3.73 ± 0.33 | -2.72 ± 0.22 |
| AAUGAGCAAUAUUACGUAUC | -3.14 ± 0.21 | -1.14 ± 0.17 |
| AAUGAGCAAUAUUACGUCCG | -4.29 ± 0.39 | -3.13 ± 0.29 |
| AAUGAGCAAUAUUACGUUCU | -2 ± 0.085 | -1.21 ± 0.092 |
| AAUGAGCAAUAUUACGUUUA | -3.81 ± 0.35 | -2.21 ± 0.22 |
| AAUGAGCAAUAUUACGUUUU | -3.53 ± 0.16 | -2.15 ± 0.17 |
| AAUUAGCAAUAUUACGACCU | 0.197 ± 0.19 | 0.333 ± 0.21 |
| AAUUAGCAAUAUUACGACGA | -0.729 ± 0.12 | -0.15 ± 0.2 |
| AAUUAGCAAUAUUACGAGCA | -1.1 ± 0.12 | -0.758 ± 0.1 |
| AAUUAGCAAUAUUACGAUAU | -0.45 ± 0.093 | 0.012 ± 0.12 |
| AAUUAGCAAUAUUACGCAGU | -2.78 ± 0.16 | -1.3 ± 0.2 |
| AAUUAGCAAUAUUACGCCAG | – | -2.11 ± 0.31 |
| AAUUAGCAAUAUUACGCCCA | 0.555 ± 0.24 | -0.278 ± 0.36 |
| AAUUAGCAAUAUUACGCGUA | -1.07 ± 0.12 | -0.804 ± 0.14 |
| AAUUAGCAAUAUUACGCGUU | -3.13 ± 0.32 | -2.61 ± 0.28 |
| AAUUAGCAAUAUUACGCUAU | -2.55 ± 0.26 | -1.97 ± 0.31 |
| AAUUAGCAAUAUUACGCUUA | -0.993 ± 0.12 | 0.247 ± 0.14 |
| AAUUAGCAAUAUUACGGCCA | -0.657 ± 0.14 | 0.518 ± 0.17 |
| AAUUAGCAAUAUUACGGCUU | -0.0634 ± 0.092 | 0.169 ± 0.13 |
| AAUUAGCAAUAUUACGGGAG | -2.99 ± 0.19 | -2.17 ± 0.16 |
| AAUUAGCAAUAUUACGGGCC | – | -1.11 ± 0.49 |
| AAUUAGCAAUAUUACGUAAC | -1.98 ± 0.16 | -1.55 ± 0.29 |
| AAUUAGCAAUAUUACGUCGC | -3.08 ± 0.27 | -1.38 ± 0.21 |
| AAUUAGCAAUAUUACGUCUA | -0.734 ± 0.087 | -0.256 ± 0.093 |

| Sequence | self-splicing fitness (ln) (30 °C) | self-splicing fitness (ln) (37 °C) |
| --- | --- | --- |
| AAUUAGCAAUAUUACGUCUC | -0.875 ± 0.12 | -0.478 ± 0.16 |
| AAUUAGCAAUAUUACGUGCA | -0.984 ± 0.096 | -0.374 ± 0.12 |
| AAUUAGCAAUAUUACGUUGG | -3.34 ± 0.17 | -2.56 ± 0.16 |
| ACAAAGCAAUAUUACGAAAU | -3.02 ± 0.13 | -1.42 ± 0.12 |
| ACAAAGCAAUAUUACGAAUG | -1.68 ± 0.057 | -1.02 ± 0.085 |
| ACAAAGCAAUAUUACGACAU | -0.488 ± 0.011 | 0.0402 ± 0.032 |
| ACAAAGCAAUAUUACGAGCU | -0.866 ± 0.066 | -0.624 ± 0.097 |
| ACAAAGCAAUAUUACGAGGC | -2.57 ± 0.16 | -1.59 ± 0.34 |
| ACAAAGCAAUAUUACGCCAU | -3.96 ± 0.2 | -2.24 ± 0.14 |
| ACAAAGCAAUAUUACGCCUA | -1.61 ± 0.13 | -1.32 ± 0.12 |
| ACAAAGCAAUAUUACGCGCA | -0.72 ± 0.067 | -0.569 ± 0.078 |
| ACAAAGCAAUAUUACGCGUC | -4.08 ± 0.31 | -2.09 ± 0.22 |
| ACAAAGCAAUAUUACGCGUU | -3.19 ± 0.1 | -2.69 ± 0.14 |
| ACAAAGCAAUAUUACGCUAU | -2.38 ± 0.088 | -0.848 ± 0.092 |
| ACAAAGCAAUAUUACGCUCC | -1.29 ± 0.16 | -0.526 ± 0.17 |
| ACAAAGCAAUAUUACGCUCG | -0.887 ± 0.08 | 0.156 ± 0.12 |
| ACAAAGCAAUAUUACGCUUC | -3.15 ± 0.14 | -2.46 ± 0.16 |
| ACAAAGCAAUAUUACGGAUU | -2.49 ± 0.085 | -0.946 ± 0.081 |
| ACAAAGCAAUAUUACGGCAA | -0.0281 ± 0.08 | -0.252 ± 0.1 |
| ACAAAGCAAUAUUACGGGCC | -3.9 ± 0.3 | -2.32 ± 0.24 |
| ACAAAGCAAUAUUACGGGCG | -0.625 ± 0.05 | 0.111 ± 0.067 |
| ACAAAGCAAUAUUACGGGUG | -1.21 ± 0.046 | -0.593 ± 0.064 |
| ACAAAGCAAUAUUACGUACA | -1.6 ± 0.083 | -0.786 ± 0.089 |
| ACAAAGCAAUAUUACGUACU | -0.16 ± 0.049 | -0.0261 ± 0.072 |
